Results as given in the supplement of paper PMC9170038.

What follows are sequences tested on MS2 coat protein (assay: apparent KD of MS2 coat protein; higher = weaker reporter binding). Details: Eterna round: R107; input ligand: theophylline 2 mM.
Summary of the method: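 Designed RNA switches, transcribed on-chip from Illumina sequencing clusters, were titrated with SNAP-549-labelled MS2 coat protein from 0.7 or 1.5 nM to 3 µM in twofold steps. The solution was 100 mM Tris-HCl pH 7.5, 80 mM KCl, 4 mM MgCl2, with constant ligand or without it. Apparent KD is the median over each design's normalised cluster binding-curve fits.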
“CAAGAGUUGUACAUUGUGAGGCGUCGGGAACGAGGACCGGUACGGCCGCCACUCGAAAAUUAACAUGAGGAUCACCCAUGUACAC [theeternabot_exclusion_MS2_Trp_A_35]” was tested, and the “apparent KD of MS2 coat protein” value was 82.8 nM.
In the case of “UGAUAUGUAGGAAGGAGCGCAUACUUCACAUGAGGAUCACCCAUGUCAAGACGUGAGUCAGUGCAGGUAGGUCGCCUAGUUAUGA [Same State - Arginine B (Freestyle 20)]”, the “apparent KD of MS2 coat protein” value is reported as 36.9 nM.
With “AAUGUAUGGCACAUGAGGAUCACCCAUGUGCGAGGACCGGUACGGCCGCCACUCGGUCCUGGGAUCUUAAUACUAUACAUUAAUG [XTryp A #19]” the “apparent KD of MS2 coat protein” value was 13.9 nM.
With “GGUGGGAGCAACGAUACCAGCUACAUGAGGAUCACCCAUGUGGAAUGGGAGUCAACAGCGAGCCCUUGGCAGCGUUAGACCCAAA [Bebeeserdi]” the “apparent KD of MS2 coat protein” value was 128 nM.
In the case of “ACAUUUAACUGAAGGAGCGUGAAUAACAUGAGGAUCACCCAUGUAACUUAGAUUCUUAUAUCACAGGUAGGUCGCAGACUAAUGA [JR_ExcArginiB_Sub012]”, the “apparent KD of MS2 coat protein” value is reported as 21.5 nM.
With “AACAUGAGGAUCACCCAUGUCCUCGUGUACCGAGGACCGGUACGGCCGCCACUCGGUUCUCGCGAGGAUGGUCAAAGACUAUCCA [Omei Trp A SS B v4]” the “apparent KD of MS2 coat protein” value was 1010 nM.
For “GACCUUGCGGGCGCCCGCAAGGUUGCGGAUACCAGCGAGGUCCAUCGCCCUUGGCAGCCGAACAUGAGGAUCACCCAUGUCGGAC [Same State - Theophylline A Attempt #3 (HarryS)]”, the “apparent KD of MS2 coat protein” value was 15.8 nM.
In the case of “GGAUAGGACACGGCCGCCACUGCGGCUAGAUACUAGCACAUUUCCUCACAUGAGGAUCACCCAUGUAGGACCGGGUGUCCUAUCG”, the “apparent KD of MS2 coat protein” value is reported as 89 nM.
In the case of “UGCAUUAUACAUGGAUCACCCAUGUAGACACGAGGACCGGUACGGCCGCCACUCGGAAGAGGGAACAUGAGGAUCACCCAUGUGA [Try A SS t1]”, the “apparent KD of MS2 coat protein” value is reported as 55 nM.

Same assay, conditions: Eterna round: R107; input ligand: tryptophan 2.4 mM
In the case of “UGGUACAUGGCGGCCGCCACUUCACGUAAAAUAAAAACUUGAGGAACACCCAAGUAAUAAGUUGGGAGGACCGGGUCAUGUACCU”, the “apparent KD of MS2 coat protein” value is reported as 26.1 nM.
For “AAAAGAGGUGGAAGGAGCGGGAGACAUGAGGAUCACCCAUGUGAAGUAACGAAAGGUACAGCCCAGGUAGGUCGCCAUGUCGAAA [qxqamullin]”, the “apparent KD of MS2 coat protein” value was 32.8 nM.
For “GGCCGAUGGUGCGAUACCAGCUUGAGUGUACUGGCCAGGUACAUGAGGAUCACCCAUGUAAGCCCUUGGCAGCGCGUCAAAGGCC [#1 Exclusion - Theophylline B Attempt #20 (HarryS)]”, the “apparent KD of MS2 coat protein” value was 10.5 nM.
For “ACCGCAUCCGUAUAGGAUGCGGCCCAUGAAGGAGCGUGGGAAACCACAGGUAGGUCGCAUGGACAUGAGGAUCACCCAUGUUAUU [Inception]”, the “apparent KD of MS2 coat protein” value was 48.3 nM.
With “UUAUAUAUGCGAAGGAGCGGGAAAUAUAUAUAUAUAAUCCUAACAUGAGGAUCACCCAUGUCCCAGGUAGGUCGCGCAUAUAUAG [12.C]” the “apparent KD of MS2 coat protein” value was 53.4 nM.
“AGACGAGAAGAGGAUUACCCAUGUACAGAAGGAGCGUCGUUGACGACAGGUAGGUCGCUGAGAACAUGAGGAUCACCCAUGUUGA [Arg A Ex t1]” was tested, and the “apparent KD of MS2 coat protein” value was 36 nM.
With “ACAUGGGUCUGAAGGAGCGCGAUAACAUGAGGAUCACCCAUGUAAAAUGGAACAUGAUAAUCGCAGGUAGGUCGCAGUAAAACCC [Same State Arginine B GF 11]” the “apparent KD of MS2 coat protein” value was 365 nM.
In the case of “AAUAAGCAGCUGCAAGGUGAUCCUGCAGAUACCAGCUAGGAAACUAGCCCUUGGCAGCUGCAACAUGAGGAUCACCCAUGUAAUA [(T)'-(M)'-(T1)-(T2)-(M1)-(M2)_Design6]”, the “apparent KD of MS2 coat protein” value is reported as 30.7 nM.
In the case of “AAGGUGAUCCGUGAUACCAGCUCAACAUGAGGAUCACCCAUGUAAGCCUGGAAACAGGCGAGCCCUUGGCAGCACGGUUGCCAAG [(M)'-(Theo1)-(Ms2)-(Theo2)-(M'')-(T2)'_Design1]”, the “apparent KD of MS2 coat protein” value is reported as 163 nM.
For “UCGCUCUGGGUGGGAUCCGGAGAUGUGGAAGGAGCGCUGGUUACAGCAGGUAGGUCGCCAACGGACAUGAGGAUCACCCAUGUAC [Same State - Arginine A (Freestyle 16)]”, the “apparent KD of MS2 coat protein” value was 36.2 nM.
In the case of “ACAUGAGGAUCACCCAUGUCAAGGCACGAUACCAGCUGAUCCCGUGGCCCUUGGCAGCGUCACGUUUGGUCCCGCGGAUGACACG [zczmullin]”, the “apparent KD of MS2 coat protein” value is reported as 86.9 nM.
With “UGAUAUGUAGGAAGGAGCGCAUACUUCACAUGAGGAUCACCCAUGUCAAGACGUGAGUCAGUGCAGGUAGGUCGCCUAGUUAUGA [Same State - Arginine B (Freestyle 20)]” the “apparent KD of MS2 coat protein” value was 36 nM.
For “AAACGUUGCUGCGAUACCAGACAUGAGGAUCACCCAUGUACCAAGAAAACGUACAUAAAUGUCCCUUGGCAGCGCAGCAACGAAA [MAT - Exclusion Theophlline B - Mod of Eli - D28]”, the “apparent KD of MS2 coat protein” value was 635 nM.
“GGUGGGAGCAACGAUACCAGCUACAUGAGGAUCACCCAUGUGGAAUGGGAGUCAACAGCGAGCCCUUGGCAGCGUUAGACCCAAA [Bebeeserdi]” was tested, and the “apparent KD of MS2 coat protein” value was 11.6 nM.
“UCACGUGGGAAUGAUACCAGCCACAUGAGGAUCACCCAUGUGCAUGGUGUGAGCUUCACGGGCCCUUGGCAGCAUUUCAAGUCGC [Agelaus]” was tested, and the “apparent KD of MS2 coat protein” value was 37.9 nM.
“ACAUUUAACUGAAGGAGCGUGAAUAACAUGAGGAUCACCCAUGUAACUUAGAUUCUUAUAUCACAGGUAGGUCGCAGACUAAUGA [JR_ExcArginiB_Sub012]” was tested, and the “apparent KD of MS2 coat protein” value was 19 nM.
For “UAAUAUCACAUAUUAUGGGUGUAAUGUGAUACCAGCUAGGAAACUAGCCCUUGGCAGCACAUGAGGAUCACCCAUGUAAGCUGUA [(T1)'-(M)'-(T1)-(T2)-(M1)-(M2)-(T2)'_Design4_2/19/17]”, the “apparent KD of MS2 coat protein” value was 68.9 nM.
For “AACACACCAAAUGAUACCAGCUACAACAUGAUACAAAACCACAUGAGGAUCACCCAUGUAAGCCCUUGGCAGCAUACUACUGUAA [theeternabot_exclusion_MS2_Theo_B_40]”, the “apparent KD of MS2 coat protein” value was 18.7 nM.
For “GACCUUGCGGGCGCCCGCAAGGUUGCGGAUACCAGCGAGGUCCAUCGCCCUUGGCAGCCGAACAUGAGGAUCACCCAUGUCGGAC [Same State - Theophylline A Attempt #3 (HarryS)]”, the “apparent KD of MS2 coat protein” value was 11.2 nM.
